Assay results taken from patent publication US20230365662A1.
“And” between values parts separate entries of the source, which are not always exact repeats. Equal entries are not always repeated.

Target: HRgpA-6H (Porphyromonas gingivalis) (UniProt P28784)
Test: ELISA, FASEBA Fab on coated HRgpA-6H

UniProt P28784, sequence (P28784 228-991): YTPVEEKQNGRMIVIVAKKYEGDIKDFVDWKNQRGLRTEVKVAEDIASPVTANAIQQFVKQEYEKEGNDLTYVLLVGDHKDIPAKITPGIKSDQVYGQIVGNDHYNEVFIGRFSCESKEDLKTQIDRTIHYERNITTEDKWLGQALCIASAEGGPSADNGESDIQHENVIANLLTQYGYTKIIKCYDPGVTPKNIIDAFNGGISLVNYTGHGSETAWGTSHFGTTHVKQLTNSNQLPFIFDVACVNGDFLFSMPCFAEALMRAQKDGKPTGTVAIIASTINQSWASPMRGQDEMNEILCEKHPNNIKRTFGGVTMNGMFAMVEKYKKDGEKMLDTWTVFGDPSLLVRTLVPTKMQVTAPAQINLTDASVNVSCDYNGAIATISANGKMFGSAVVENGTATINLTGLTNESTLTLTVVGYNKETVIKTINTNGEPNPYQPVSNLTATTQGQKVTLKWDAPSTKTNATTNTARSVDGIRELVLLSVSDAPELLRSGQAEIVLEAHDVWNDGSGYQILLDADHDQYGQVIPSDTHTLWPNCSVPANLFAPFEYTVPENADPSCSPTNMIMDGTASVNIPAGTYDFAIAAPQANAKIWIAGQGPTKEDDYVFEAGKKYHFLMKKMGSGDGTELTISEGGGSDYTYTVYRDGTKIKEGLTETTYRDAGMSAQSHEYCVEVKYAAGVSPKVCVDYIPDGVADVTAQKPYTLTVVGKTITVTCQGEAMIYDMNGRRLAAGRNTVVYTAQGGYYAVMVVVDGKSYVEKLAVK

Binder | OD450nm | Ratio OD(Variant)/OD(WT)
KB001 mouse Fab VL S32G (Fab, V domains shown) VH: EVQLKQSGPGLVAPSQSLSITCTVSGFSLSIYSVHWVRQPPGKGLEWLGMIWGGGSSDYNSALKSRLSISKDNSKSQVFLKMNSLQTDDTAMYYCARNGNFYAMDYWGQGTSVTVSS VL: QIVLTQSPAIMSASLGERVTMTCTASSSVSSGFLHWYQQKPGSSPQLWIYSTSNLASGVPARFSGSGSGTSYSLTISSMEAEDAATYYCHQYHHSPYIYTFGGGTKLEIK | 0.759 | 0.898
KB001 mouse Fab VL S32Y (Fab, V domains shown) VH: EVQLKQSGPGLVAPSQSLSITCTVSGFSLSIYSVHWVRQPPGKGLEWLGMIWGGGSSDYNSALKSRLSISKDNSKSQVFLKMNSLQTDDTAMYYCARNGNFYAMDYWGQGTSVTVSS VL: QIVLTQSPAIMSASLGERVTMTCTASSSVSSYFLHWYQQKPGSSPQLWIYSTSNLASGVPARFSGSGSGTSYSLTISSMEAEDAATYYCHQYHHSPYIYTFGGGTKLEIK | 0.753 | 0.891
KB001 mouse Fab VL S32P (Fab, V domains shown) VH: EVQLKQSGPGLVAPSQSLSITCTVSGFSLSIYSVHWVRQPPGKGLEWLGMIWGGGSSDYNSALKSRLSISKDNSKSQVFLKMNSLQTDDTAMYYCARNGNFYAMDYWGQGTSVTVSS VL: QIVLTQSPAIMSASLGERVTMTCTASSSVSSPFLHWYQQKPGSSPQLWIYSTSNLASGVPARFSGSGSGTSYSLTISSMEAEDAATYYCHQYHHSPYIYTFGGGTKLEIK | 0.744 | 0.88
KB001 mouse Fab VL S32Q (Fab, V domains shown) VH: EVQLKQSGPGLVAPSQSLSITCTVSGFSLSIYSVHWVRQPPGKGLEWLGMIWGGGSSDYNSALKSRLSISKDNSKSQVFLKMNSLQTDDTAMYYCARNGNFYAMDYWGQGTSVTVSS VL: QIVLTQSPAIMSASLGERVTMTCTASSSVSSQFLHWYQQKPGSSPQLWIYSTSNLASGVPARFSGSGSGTSYSLTISSMEAEDAATYYCHQYHHSPYIYTFGGGTKLEIK | 0.716 | 0.847
KB001 mouse Fab VL S32W (Fab, V domains shown) VH: EVQLKQSGPGLVAPSQSLSITCTVSGFSLSIYSVHWVRQPPGKGLEWLGMIWGGGSSDYNSALKSRLSISKDNSKSQVFLKMNSLQTDDTAMYYCARNGNFYAMDYWGQGTSVTVSS VL: QIVLTQSPAIMSASLGERVTMTCTASSSVSSWFLHWYQQKPGSSPQLWIYSTSNLASGVPARFSGSGSGTSYSLTISSMEAEDAATYYCHQYHHSPYIYTFGGGTKLEIK | 0.649 | 0.856
KB001 mouse Fab VL F33N (Fab, V domains shown) VH: EVQLKQSGPGLVAPSQSLSITCTVSGFSLSIYSVHWVRQPPGKGLEWLGMIWGGGSSDYNSALKSRLSISKDNSKSQVFLKMNSLQTDDTAMYYCARNGNFYAMDYWGQGTSVTVSS VL: QIVLTQSPAIMSASLGERVTMTCTASSSVSSSNLHWYQQKPGSSPQLWIYSTSNLASGVPARFSGSGSGTSYSLTISSMEAEDAATYYCHQYHHSPYIYTFGGGTKLEIK | 0.64 | 0.844
KB001 mouse Fab VL F33H (Fab, V domains shown) VH: EVQLKQSGPGLVAPSQSLSITCTVSGFSLSIYSVHWVRQPPGKGLEWLGMIWGGGSSDYNSALKSRLSISKDNSKSQVFLKMNSLQTDDTAMYYCARNGNFYAMDYWGQGTSVTVSS VL: QIVLTQSPAIMSASLGERVTMTCTASSSVSSSHLHWYQQKPGSSPQLWIYSTSNLASGVPARFSGSGSGTSYSLTISSMEAEDAATYYCHQYHHSPYIYTFGGGTKLEIK | 0.736 | 0.971
KB001 mouse Fab VL L34V (Fab, V domains shown) VH: EVQLKQSGPGLVAPSQSLSITCTVSGFSLSIYSVHWVRQPPGKGLEWLGMIWGGGSSDYNSALKSRLSISKDNSKSQVFLKMNSLQTDDTAMYYCARNGNFYAMDYWGQGTSVTVSS VL: QIVLTQSPAIMSASLGERVTMTCTASSSVSSSFVHWYQQKPGSSPQLWIYSTSNLASGVPARFSGSGSGTSYSLTISSMEAEDAATYYCHQYHHSPYIYTFGGGTKLEIK | 0.641 and 0.634 | 0.846 and 0.836
KB001 mouse Fab VL L34M (Fab, V domains shown) VH: EVQLKQSGPGLVAPSQSLSITCTVSGFSLSIYSVHWVRQPPGKGLEWLGMIWGGGSSDYNSALKSRLSISKDNSKSQVFLKMNSLQTDDTAMYYCARNGNFYAMDYWGQGTSVTVSS VL: QIVLTQSPAIMSASLGERVTMTCTASSSVSSSFMHWYQQKPGSSPQLWIYSTSNLASGVPARFSGSGSGTSYSLTISSMEAEDAATYYCHQYHHSPYIYTFGGGTKLEIK | 0.736 and 0.741 and 0.714 | 0.971 and 0.978 and 0.911
KB001 mouse Fab VL L34I (Fab, V domains shown) VH: EVQLKQSGPGLVAPSQSLSITCTVSGFSLSIYSVHWVRQPPGKGLEWLGMIWGGGSSDYNSALKSRLSISKDNSKSQVFLKMNSLQTDDTAMYYCARNGNFYAMDYWGQGTSVTVSS VL: QIVLTQSPAIMSASLGERVTMTCTASSSVSSSFIHWYQQKPGSSPQLWIYSTSNLASGVPARFSGSGSGTSYSLTISSMEAEDAATYYCHQYHHSPYIYTFGGGTKLEIK | 0.67 | 0.884
KB001 mouse Fab VL T52K (Fab, V domains shown) VH: EVQLKQSGPGLVAPSQSLSITCTVSGFSLSIYSVHWVRQPPGKGLEWLGMIWGGGSSDYNSALKSRLSISKDNSKSQVFLKMNSLQTDDTAMYYCARNGNFYAMDYWGQGTSVTVSS VL: QIVLTQSPAIMSASLGERVTMTCTASSSVSSSFLHWYQQKPGSSPQLWIYSKSNLASGVPARFSGSGSGTSYSLTISSMEAEDAATYYCHQYHHSPYIYTFGGGTKLEIK | 0.681 | 0.865
KB001 mouse Fab VL T52R (Fab, V domains shown) VH: EVQLKQSGPGLVAPSQSLSITCTVSGFSLSIYSVHWVRQPPGKGLEWLGMIWGGGSSDYNSALKSRLSISKDNSKSQVFLKMNSLQTDDTAMYYCARNGNFYAMDYWGQGTSVTVSS VL: QIVLTQSPAIMSASLGERVTMTCTASSSVSSSFLHWYQQKPGSSPQLWIYSRSNLASGVPARFSGSGSGTSYSLTISSMEAEDAATYYCHQYHHSPYIYTFGGGTKLEIK | 0.724 and 0.681 and 0.685 | 0.919 and 0.865 and 0.87
KB001 mouse Fab VL T52L (Fab, V domains shown) VH: EVQLKQSGPGLVAPSQSLSITCTVSGFSLSIYSVHWVRQPPGKGLEWLGMIWGGGSSDYNSALKSRLSISKDNSKSQVFLKMNSLQTDDTAMYYCARNGNFYAMDYWGQGTSVTVSS VL: QIVLTQSPAIMSASLGERVTMTCTASSSVSSSFLHWYQQKPGSSPQLWIYSLSNLASGVPARFSGSGSGTSYSLTISSMEAEDAATYYCHQYHHSPYIYTFGGGTKLEIK | 0.769 | 0.977
KB001 mouse Fab VL T52M (Fab, V domains shown) VH: EVQLKQSGPGLVAPSQSLSITCTVSGFSLSIYSVHWVRQPPGKGLEWLGMIWGGGSSDYNSALKSRLSISKDNSKSQVFLKMNSLQTDDTAMYYCARNGNFYAMDYWGQGTSVTVSS VL: QIVLTQSPAIMSASLGERVTMTCTASSSVSSSFLHWYQQKPGSSPQLWIYSMSNLASGVPARFSGSGSGTSYSLTISSMEAEDAATYYCHQYHHSPYIYTFGGGTKLEIK | 0.662 | 0.841
KB001 mouse Fab VL S53D (Fab, V domains shown) VH: EVQLKQSGPGLVAPSQSLSITCTVSGFSLSIYSVHWVRQPPGKGLEWLGMIWGGGSSDYNSALKSRLSISKDNSKSQVFLKMNSLQTDDTAMYYCARNGNFYAMDYWGQGTSVTVSS VL: QIVLTQSPAIMSASLGERVTMTCTASSSVSSSFLHWYQQKPGSSPQLWIYSTDNLASGVPARFSGSGSGTSYSLTISSMEAEDAATYYCHQYHHSPYIYTFGGGTKLEIK | 0.775 | 0.984
KB001 mouse Fab VL S53C (Fab, V domains shown) VH: EVQLKQSGPGLVAPSQSLSITCTVSGFSLSIYSVHWVRQPPGKGLEWLGMIWGGGSSDYNSALKSRLSISKDNSKSQVFLKMNSLQTDDTAMYYCARNGNFYAMDYWGQGTSVTVSS VL: QIVLTQSPAIMSASLGERVTMTCTASSSVSSSFLHWYQQKPGSSPQLWIYSTCNLASGVPARFSGSGSGTSYSLTISSMEAEDAATYYCHQYHHSPYIYTFGGGTKLEIK | 0.697 | 0.885
KB001 mouse Fab VL S53A (Fab, V domains shown) VH: EVQLKQSGPGLVAPSQSLSITCTVSGFSLSIYSVHWVRQPPGKGLEWLGMIWGGGSSDYNSALKSRLSISKDNSKSQVFLKMNSLQTDDTAMYYCARNGNFYAMDYWGQGTSVTVSS VL: QIVLTQSPAIMSASLGERVTMTCTASSSVSSSFLHWYQQKPGSSPQLWIYSTANLASGVPARFSGSGSGTSYSLTISSMEAEDAATYYCHQYHHSPYIYTFGGGTKLEIK | 0.784 | 0.996
KB001 mouse Fab VL S53R (Fab, V domains shown) VH: EVQLKQSGPGLVAPSQSLSITCTVSGFSLSIYSVHWVRQPPGKGLEWLGMIWGGGSSDYNSALKSRLSISKDNSKSQVFLKMNSLQTDDTAMYYCARNGNFYAMDYWGQGTSVTVSS VL: QIVLTQSPAIMSASLGERVTMTCTASSSVSSSFLHWYQQKPGSSPQLWIYSTRNLASGVPARFSGSGSGTSYSLTISSMEAEDAATYYCHQYHHSPYIYTFGGGTKLEIK | 0.637 | 0.809
KB001 mouse Fab VL S53W (Fab, V domains shown) VH: EVQLKQSGPGLVAPSQSLSITCTVSGFSLSIYSVHWVRQPPGKGLEWLGMIWGGGSSDYNSALKSRLSISKDNSKSQVFLKMNSLQTDDTAMYYCARNGNFYAMDYWGQGTSVTVSS VL: QIVLTQSPAIMSASLGERVTMTCTASSSVSSSFLHWYQQKPGSSPQLWIYSTWNLASGVPARFSGSGSGTSYSLTISSMEAEDAATYYCHQYHHSPYIYTFGGGTKLEIK | 0.727 | 0.923
KB001 mouse Fab VL S53L (Fab, V domains shown) VH: EVQLKQSGPGLVAPSQSLSITCTVSGFSLSIYSVHWVRQPPGKGLEWLGMIWGGGSSDYNSALKSRLSISKDNSKSQVFLKMNSLQTDDTAMYYCARNGNFYAMDYWGQGTSVTVSS VL: QIVLTQSPAIMSASLGERVTMTCTASSSVSSSFLHWYQQKPGSSPQLWIYSTLNLASGVPARFSGSGSGTSYSLTISSMEAEDAATYYCHQYHHSPYIYTFGGGTKLEIK | 0.639 and 0.636 | 0.811 and 0.808
KB001 mouse Fab VL S53Y (Fab, V domains shown) VH: EVQLKQSGPGLVAPSQSLSITCTVSGFSLSIYSVHWVRQPPGKGLEWLGMIWGGGSSDYNSALKSRLSISKDNSKSQVFLKMNSLQTDDTAMYYCARNGNFYAMDYWGQGTSVTVSS VL: QIVLTQSPAIMSASLGERVTMTCTASSSVSSSFLHWYQQKPGSSPQLWIYSTYNLASGVPARFSGSGSGTSYSLTISSMEAEDAATYYCHQYHHSPYIYTFGGGTKLEIK | 0.776 and 0.781 | 0.985 and 0.992
